According to paper PMC6232856:

Target: rabbit skeletal muscle actin, polymerised (F-actin) (rabbit) (UniProt P68135)
Experiment: co-sedimentation

human espin 3A with the USH1M variant p.790_795delRRDLLR, N-terminally 6xHis-tagged (natural protein), sequence (B1AK53 whole entry, stated change not applied): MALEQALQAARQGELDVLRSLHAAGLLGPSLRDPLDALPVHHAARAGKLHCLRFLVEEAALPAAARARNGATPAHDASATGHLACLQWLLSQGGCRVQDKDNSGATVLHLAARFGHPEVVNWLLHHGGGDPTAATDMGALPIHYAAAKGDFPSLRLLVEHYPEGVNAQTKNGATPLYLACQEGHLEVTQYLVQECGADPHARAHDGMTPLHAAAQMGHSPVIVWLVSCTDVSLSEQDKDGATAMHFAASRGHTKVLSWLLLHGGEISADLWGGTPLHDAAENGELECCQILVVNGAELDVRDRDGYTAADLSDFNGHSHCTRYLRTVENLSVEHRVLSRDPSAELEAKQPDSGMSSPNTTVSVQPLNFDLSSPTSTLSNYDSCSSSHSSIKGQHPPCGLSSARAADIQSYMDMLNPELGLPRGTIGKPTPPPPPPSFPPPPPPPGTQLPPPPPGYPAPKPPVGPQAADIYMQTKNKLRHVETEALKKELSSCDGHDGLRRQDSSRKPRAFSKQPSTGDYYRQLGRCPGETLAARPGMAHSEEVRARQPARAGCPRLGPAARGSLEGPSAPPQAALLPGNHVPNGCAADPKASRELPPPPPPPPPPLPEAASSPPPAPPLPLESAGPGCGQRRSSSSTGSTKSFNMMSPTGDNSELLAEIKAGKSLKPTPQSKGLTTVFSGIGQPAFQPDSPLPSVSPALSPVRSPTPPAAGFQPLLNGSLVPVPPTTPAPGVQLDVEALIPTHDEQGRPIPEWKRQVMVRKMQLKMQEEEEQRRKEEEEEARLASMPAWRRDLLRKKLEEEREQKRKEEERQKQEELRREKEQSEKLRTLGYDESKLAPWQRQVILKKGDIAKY

Row | percent of espin cosedimented with F-actin | Substance
1 | 15% | human espin 3A with the USH1M variant p.790_795delRRDLLR, N-terminally 6xHis-tagged (natural protein)
2 | 45% | human espin 3A, wild type, N-terminally 6xHis-tagged (natural protein)
